{"source": "paper PMC6353226", "origin": "cited, not measured here", "key": {"[1]": {"target": "IGF1R pY1161 (Homo sapiens) (UniProt P08069)"}, "[2]": {"target": "IGF1R pY1165 (Homo sapiens) (UniProt P08069)"}}, "data": [{"substance": "YES1 SH2 (from UniProt P07947)", "values": [{"measurement": "Kd", "setting": "[1]", "value": 900, "unit": "nM"}, {"measurement": "Kd", "setting": "[2]", "value": 900, "unit": "nM"}]}]}
